Experiments:
[1] = molecular target: T1, Flag-tagged Pds5b (wild type) from cells co-expressing Δ86-cyclin A2 (human, UniProt Q9NTI5 1-1447, phosphoserine at 1161 and 1166 (by Cdk1/2-cyclin A2)); test: pull-down; Flag-Pds5a or -b affinity-purified on anti-Flag beads from chromatin-free lysates of taxol-arrested Hek293T cells (expressed alone or with Nek2aΔMR and/or Δ86-cyclin A2); beads incubated with a mixture of recombinant Wapl (2 µl) and sororin (0.3 µg) in 15 µl cleavage buffer with kinase inhibitors, 20 min at 37 °C; bound and unbound fractions by immunoblotting; details: both partners purified
T1 construct: Pds5b, human; insert by PCR on human cDNA; their state in this preparation was not measured; source: Hek293T co-expressing eGFP-Δ86-cyclin A2, taxol-arrested
T1 sequence (looked up): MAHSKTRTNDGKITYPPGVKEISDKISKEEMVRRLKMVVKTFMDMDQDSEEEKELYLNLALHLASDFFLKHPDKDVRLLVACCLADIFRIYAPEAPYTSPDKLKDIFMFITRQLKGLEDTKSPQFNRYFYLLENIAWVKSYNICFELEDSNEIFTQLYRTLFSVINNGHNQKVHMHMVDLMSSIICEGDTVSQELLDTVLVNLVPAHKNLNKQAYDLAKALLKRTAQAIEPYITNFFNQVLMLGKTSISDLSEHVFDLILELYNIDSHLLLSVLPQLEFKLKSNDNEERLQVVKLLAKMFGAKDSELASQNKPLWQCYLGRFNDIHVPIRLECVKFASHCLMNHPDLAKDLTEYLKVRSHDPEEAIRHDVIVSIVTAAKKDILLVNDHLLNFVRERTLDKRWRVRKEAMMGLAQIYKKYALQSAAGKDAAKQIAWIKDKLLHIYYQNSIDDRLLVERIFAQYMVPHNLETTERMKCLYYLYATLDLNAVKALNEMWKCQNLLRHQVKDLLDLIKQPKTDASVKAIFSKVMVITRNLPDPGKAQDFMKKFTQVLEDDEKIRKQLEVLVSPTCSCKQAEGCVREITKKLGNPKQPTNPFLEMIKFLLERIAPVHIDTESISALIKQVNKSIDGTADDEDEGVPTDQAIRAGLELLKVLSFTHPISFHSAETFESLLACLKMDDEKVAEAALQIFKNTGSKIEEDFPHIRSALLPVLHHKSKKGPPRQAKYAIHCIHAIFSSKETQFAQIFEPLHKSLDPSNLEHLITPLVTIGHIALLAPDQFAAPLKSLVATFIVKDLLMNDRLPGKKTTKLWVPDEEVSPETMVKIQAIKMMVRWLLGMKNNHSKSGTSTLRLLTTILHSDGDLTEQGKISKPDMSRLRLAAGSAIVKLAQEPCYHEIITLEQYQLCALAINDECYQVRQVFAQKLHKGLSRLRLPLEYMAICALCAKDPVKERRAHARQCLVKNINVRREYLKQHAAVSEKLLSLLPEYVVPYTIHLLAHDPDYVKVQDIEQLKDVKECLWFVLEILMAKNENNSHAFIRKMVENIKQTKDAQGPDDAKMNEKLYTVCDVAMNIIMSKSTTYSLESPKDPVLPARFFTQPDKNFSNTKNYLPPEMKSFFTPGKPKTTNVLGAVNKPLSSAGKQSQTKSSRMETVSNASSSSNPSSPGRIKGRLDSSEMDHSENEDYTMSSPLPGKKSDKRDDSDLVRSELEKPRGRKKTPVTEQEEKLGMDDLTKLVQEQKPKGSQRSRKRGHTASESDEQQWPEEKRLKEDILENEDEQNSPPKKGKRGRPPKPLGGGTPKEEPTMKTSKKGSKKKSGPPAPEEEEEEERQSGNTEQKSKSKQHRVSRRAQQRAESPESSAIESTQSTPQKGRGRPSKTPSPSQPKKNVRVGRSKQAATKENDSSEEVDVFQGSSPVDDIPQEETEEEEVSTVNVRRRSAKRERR

[2] = molecular target: T2, Flag-tagged Pds5b (wild type) phosphorylated by Nek2a and Cdk1/2-cyclin A2 (human, UniProt Q9NTI5 1-1447, phosphoserine at 1161 and 1166 (by Cdk1/2-cyclin A2) and at 1177, 1182 and 1209 (by Nek2a)); test: pull-down; Flag-Pds5b variants affinity-purified from Nek2a- and cyclin A2-free prometaphase cells, incubated on the beads with recombinant Nek2a and/or Cdk1/2-cyclin A2 and ATP, washed, then incubated with recombinant Wapl (2 µl) and sororin (0.3 µg) in 15 µl cleavage buffer without ATP, 20 min at 37 °C; immunoblotting; details: both partners purified
T2 construct: Pds5b, human; insert by PCR on human cDNA; How fully each site was phosphorylated in these preparations was not measured; also called Pds5b-WT treated with these two kinases; Pds5b co-expressed with Nek2aΔMR and Δ86-cyclin A2
T2 sequence (looked up): T1 sequence (looked up)

binding result [1]: binds
binding result [2]: binds
B1: recombinant human Wapl (natural protein, UniProt Q7Z5K2 1-1190, looked up)
chain: MTSRFGKTYSRKGGNGSSKFDEVFSNKRTTLSTKWGETTFMAKLGQKRPNFKPDIQEIPKKPKVEEESTGDPFGFDSDDESLPVSSKNLAQVKCSSYSESSEAAQLEEVTSVLEANSKISHVVVEDTVVSDKCFPLEDTLLGKEKSTNRIVEDDASISSCNKLITSDKVENFHEEHEKNSHHIHKNADDSTKKPNAETTVASEIKETNDTWNSQFGKRPESPSEISPIKGSVRTGLFEWDNDFEDIRSEDCILSLDSDPLLEMKDDDFKNRLENLNEAIEEDIVQSVLRPTNCRTYCRANKTKSSQGASNFDKLMDGTSQALAKANSESSKDGLNQAKKGGVSCGTSFRGTVGRTRDYTVLHPSCLSVCNVTIQDTMERSMDEFTASTPADLGEAGRLRKKADIATSKTTTRFRPSNTKSKKDVKLEFFGFEDHETGGDEGGSGSSNYKIKYFGFDDLSESEDDEDDDCQVERKTSKKRTKTAPSPSLQPPPESNDNSQDSQSGTNNAENLDFTEDLPGVPESVKKPINKQGDKSKENTRKIFSGPKRSPTKAVYNARHWNHPDSEELPGPPVVKPQSVTVRLSSKEPNQKDDGVFKAPAPPSKVIKTVTIPTQPYQDIVTALKCRREDKELYTVVQHVKHFNDVVEFGENQEFTDDIEYLLSGLKSTQPLNTRCLSVISLATKCAMPSFRMHLRAHGMVAMVFKTLDDSQHHQNLSLCTAALMYILSRDRLNMDLDRASLDLMIRLLELEQDASSAKLLNEKDMNKIKEKIRRLCETVHNKHLDLENITTGHLAMETLLSLTSKRAGDWFKEELRLLGGLDHIVDKVKECVDHLSRDEDEEKLVASLWGAERCLRVLESVTVHNPENQSYLIAYKDSQLIVSSAKALQHCEELIQQYNRAEDSICLADSKPLPHQNVTNHVGKAVEDCMRAIIGVLLNLTNDNEWGSTKTGEQDGLIGTALNCVLQVPKYLPQEQRFDIRVLGLGLLINLVEYSARNRHCLVNMETSCSFDSSICSGEGDDSLRIGGQVHAVQALVQLFLERERAAQLAESKTDELIKDAPTTQHDKSGEWQETSGEIQWVSTEKTDGTEEKHKKEEEDEELDLNKALQHAGKHMEDCIVASYTALLLGCLCQESPINVTTVREYLPEGDFSIMTEMLKKFLSFMNLTCAVGTTGQKSISRVIEYLEHC
notes: Wapl, human; insert by PCR on human cDNA; Isolated from mitotically arrested cells; also called GFP-SUMOstar-Wapl; source: Hek293T, transiently transfected, taxol-arrested; not shown: GFP, N-terminal, cleaved; SUMOstar, N-terminal, cleaved

Reference: article PMC11535040, “Requirement of Nek2a and cyclin A2 for Wapl-dependent removal of cohesin from prophase chromatin” (The EMBO Journal, 2024)
